In publication doi:10.1101/2023.08.23.554525:

Molecular target: H1 hemagglutinin (A/New Caledonia/20/1999(H1N1)), recombinant HA trimer used for electron microscopy (influenza A virus A/New Caledonia/20/1999 (H1N1)) (UniProt Q6WG00)
Assay: cryo-EM structure

In the case of “H1 hemagglutinin (A/New Caledonia/20/1999(H1N1)), recombinant HA trimer used for electron microscopy (from UniProt Q6WG00 1-565) (natural protein)”, the stoichiometry N is reported as 3.
